# Square brackets hold non-standard residues; d marks the D form. Side chains are listed from the residue outwards. Ends that are not written are not given here. Peptide text beside a SMILES is read from it. * marks the point of attachment. DOTA = O=C(O)CN1CCN(CC(=O)O)CCN(CC(=O)*)CCN(CC(=O)O)CC1; dTyr(3-I) = N[C@H](Cc1ccc(O)c(I)c1)C(=O)O; 2Nal = N[C@@H](Cc1ccc2ccccc2c1)C(=O)O; Palmitoyl = CCCCCCCCCCCCCCCC(=O)*; dNMeOrn = CN[C@H](CCCN)C(=O)O; 4Amb = NCc1ccc(C(=O)O)cc1
# Assays:
# [1] = cited from earlier work
# [2] = in vivo; cited from earlier work
# [3] = type: physicochemical; conditions: pH 7.4
# Experimental: In a prelubricated eppendorf tube, a presaturated mixture of 500 μL of octanol and 500 μL of phosphate-buffered saline (PBS) were added. 1 pmol of the ^177Lu-labeled ligand was pipetted into this mixture, vortexed for 30 min, and then centrifuged at 3000 rpm for 10 min to achieve phase separation. Aliquots of 100 μL were removed from the octanol and from the PBS phase and the activity measured in a γ-counter. The distribution coefficient was calculated as the average log ratio value of the radioactivity in the organic fraction and PBS fraction.
# [4] = type: in vitro ADME; conditions: human, plasma, plasma protein binding (PPB)
# Experimental: (§1) Figure 3 Stability of the ^177Lu ligands in human plasma at 37 °C, expressed as % of intact radioligand over time, assessed by radio-HPLC. The % of plasma protein binding (PPB) after 60 min incubation is provided in parenthesis and it is expressed as the % of radioligand in the protein fraction (pellet) versus the total activity in the plasma. TEXT PRINTED IN THE PICTURE: ^177Lu-1: PPB: 35% | ^177Lu-2: PPB: 22% | ^177Lu-5: PPB: 42% | ^177Lu-6: PPB: 38% | ^177Lu-7: PPB: 39% | ^177Lu-9: PPB: 37%
# For the determination of plasma protein binding (PPB), 100 μL from the plasma incubated with the ^177Lu ligand was removed and measured in a γ-counter (total radioactivity). Protein precipitation and separation followed, as described above. The supernatant and the protein pellet were then measured in a γ-counter. The percentage of plasma protein binding was calculated as the ratio between the protein-bound radioactivity and the total radioactivity in the plasma.
# [5] = type: in vitro ADME, human
# Experimental: Representative radiochromatograms are provided in Figure S25 for ^177Lu-1, ^177Lu-2, and ^177Lu-7. This included ^177Lu-9 despite its fatty acid chain.
# as §1
# To 1 mL of fresh human plasma, previously equilibrated at 37 °C, 500 pmol (8–10 MBq) of each ^177Lu-labeled ligand was added. The mixture was incubated at 37 °C for different time points (0, 15, 30, 60, and 120 min). At each time point, a 100 μL aliquot was removed and treated with 1.5 excess (v/v) of acetonitrile, to precipitate plasma proteins, followed by centrifugation for 5 min at 3500 rpm. The supernatant was collected and the process of protein precipitation was repeated. Afterward, 100 μL from the supernatant was taken, diluted with water at a ratio of 1:10 (v/v), and injected into radio-HPLC. The radioligand (in)stability was assessed by quantifying the percentage of intact radioligand over time.
# Ghost-CXCR4 cells = test: Cellular uptake and distribution in Ghost-CXCR4 cells; type: cell-based, human; conditions: 37 °C, 60 min
# Experimental: Figure 4 In vitro assessment in Ghost-CXCR4 cells at 37 °C. […] Each experiment was performed in triplicate. Results are means ± SD [% of applied activity] from a minimum of two separate experiments. […] Cellular uptake was interrupted at 15, 30, and 60 min by removing the medium and washing twice with ice-cold PBS. The cell surface-bound radioligand was obtained by washing cells twice with ice-cold glycine buffer (pH 2.8) followed by a collection of the internalized fraction after treating the cells with 1 M sodium hydroxide (NaOH). The activity in each fraction was measured in a γ-counter. […] The results were expressed as a percentage of the applied radioactivity after subtracting the nonspecific uptake.
# [6] = Shelf-life of 177Lu-labeled ligands at room temperature (radio-HPLC); type: physicochemical
# Experimental: The shelf-life of each ^177Lu-labeled ligand was monitored at room temperature up to 24 h after radiolabeling.
# The shelf-lives of ^177Lu-labeled ligands were assessed at room temperature (RT) in the buffer used for labeling, as described above. For the analysis, 5 μL was withdrawn at desired time points (0, 1, 2, 4, and 24 h) from the stock solution and mixed with 50 μL of the Ca-DTPA solution. 20 μL of this mixture was withdrawn and injected in RP-HPLC.
# Jurkat xenografts = type: in vivo, mouse; conditions: 1 h p.i., SPECT/CT or PET/CT
# Experimental: The ability of the ^177Lu ligands to target CXCR4 in vivo was assessed by SPECT/CT imaging in Jurkat xenografts. […] 1 h after injection, the remaining amount of radioligand in the body (and vice versa, the washout) was quantified by measuring the total body activity (mouse) in a dose calibrator. The % of the radioligand remaining in the body after 1 h is reported in Figure 6A as % of the remaining activity in reference to the injected activity (100%).
# Figure 6 SPECT/CT images as maximum intensity projections (MIPs) of Jurkat tumor-bearing mice at 1 h p.i. of ^177Lu-labeled ligands (200 pmol, ∼15 MBq). […] (B) Same SPECT/CT images of ^177Lu-1, ^177Lu-2, ^177Lu-5, and ^177Lu-6, adapted in a lower scale. T: tumor, L: liver, and K: kidneys. […] TEXT PRINTED IN THE PICTURE: (A) ^177Lu-1: Remaining Activity (% injected): 6 % | (A) ^177Lu-2: Remaining Activity (% injected): 7 % | (A) ^177Lu-5: Remaining Activity (% injected): 7 % | (A) ^177Lu-6: Remaining Activity (% injected): 8 % | (A) ^177Lu-7: Remaining Activity (% injected): 55 % | (A) ^177Lu-9: Remaining Activity (% injected): 94 %
# The experimental protocol involving animals was approved by the Veterinary Office (Department of Health) of the Cantonal Basel-Stadt (Approval No. 30515) in accordance with the Swiss regulations for animal treatment. Female athymic nude-Foxn1^nu/Foxn1^+ mice (Envigo, The Netherlands), 4–6 weeks old, were injected subcutaneously with 10^7 Jurkat cells in a 200 μL (1:1) mixture of PBS and Matrigel (CorningMatrigelMembrane matrix, Fischer Scientific, Germany) on the right shoulder. The tumors were allowed to grow for 3–4 weeks before commencement of the experiments.
# Nude mice bearing Jurkat xenografts were intravenously injected via the tail vein with ∼15 MBq (200 pmol) of the ^177Lu ligands and 8 MBq (200 pmol) of ^68Ga-7 were euthanized 1 h post injection (p.i.). The radioactivity in the syringe before and after injection was measured followed by measuring the amount of radioactivity remaining in the sacrificed mice. […]
# [7] = cited from earlier work; remark: listed apart in the source
molecule,measurement,setting,value
"CC[C@H](C)[C@H](N)C(=O)N[C@@H](CC(C)C)C(=O)N[C@@H](CCCNC(=N)N)C(=O)N[C@@H](Cc1c[nH]c2ccccc12)C(=O)N[C@@H](CO)C(=O)N[C@@H](CCCNC(=N)N)C(=O)N[C@@H](CCCCN)C(=O)N[C@@H](CC(C)C)C(=O)N1CCC[C@H]1C(=O)N[C@@H](CS)C(=O)N[C@H](C(=O)N[C@@H](CO)C(=O)O)C(C)C [JM#21, I^1LRWSRK^7LPCVS^12]",half-life in human plasma,[1],~6 min
"CN1C(=O)[C@@H](Cc2ccc(O)cc2)NC(=O)CNC(=O)[C@H](Cc2ccc3ccccc3c2)NC(=O)[C@H](CCCN=C(N)N)NC(=O)[C@H]1CCCNC(=O)c1ccc(CNC(=O)CN2CCN(CC(=O)[O-])CCN(CC(=O)[O-])CCN(CC(=O)[O-])CC2)cc1.[68Ga+3] [^68Ga-Pentixafor, cyclo(D-Tyr^1-D-[NMe]Orn^2(AMBS-(^68Ga-DOTA))-Arg^3-Nal^4-Gly^5)] (cyclo([2Nal]G[dY][dNMeOrn]([4Amb-DOTA])R))",activity in the blood,[2],1.08 ± 0.27 %IA/g
same,uptake in the kidneys,[2],3.06 ± 0.63 %IA/g
"CC[C@H](C)[C@H](N)C(=O)N[C@@H](CC(C)C)C(=O)N[C@@H](CCCNC(=N)N)C(=O)N[C@@H](Cc1c[nH]c2ccccc12)C(=O)N[C@@H](CO)C(=O)N[C@@H](CCCNC(=N)N)C(=O)N[C@@H](CCCCN)C(=O)N[C@@H](CC(C)C)C(=O)N1CCC[C@H]1C(=O)N[C@@H](CO)C(=O)N[C@H](C(=O)N[C@@H](CO)C(=O)N[C@@H](CCCCNC(=O)CN1CCN(CC(=O)O)CCN(CC(=O)O)CCN(CC(=O)O)CC1)C(=O)O)C(C)C [^177Lu-2, metal not drawn] (H-ILRWSRKLPSVSK(DOTA)-OH; N-terminus and C-terminus assumed)",logD,[3],-3.23 ± 0.23
same,fraction unbound at 60 min,[4],0.78
same,time to complete degradation in human plasma,[5],60 min
"CCCCCCCCCCCCCCCC(=O)N[C@@H](CCC(=O)O)C(=O)NCCCC[C@H](NC(=O)[C@H](CCCNC(=N)N)NC(=O)[C@H](CO)NC(=O)[C@H](Cc1c[nH]c2ccccc12)NC(=O)[C@H](CCCNC(=N)N)NC(=O)[C@H](CC(C)C)NC(=O)[C@H](N)CC(C)C)C(=O)N[C@@H](CCCCNC(=O)CN1CCN(CC(=O)O)CCN(CC(=O)O)CCN(CC(=O)O)CC1)C(N)=O [^177Lu-9, metal not drawn] (H-[dL]LRWSRK([Glu-Palmitoyl])K(DOTA)-NH2; N-terminus assumed)",cellular uptake (% of the applied activity),Ghost-CXCR4 cells,3.25 ± 0.06%
same,subcellular distribution (membrane-bound vs internalized),Ghost-CXCR4 cells,almost entirely internalized
same,radiochemical purity (%),[6]; 0 h after radiolabeling,96 ± 3%
same,radiochemical purity (%),[6]; 1 h after radiolabeling,96 ± 2%
same,radiochemical purity (%),[6]; 2 h after radiolabeling,94 ± 1%
same,radiochemical purity (%),[6]; 4 h after radiolabeling,93 ± 1%
same,visualization of CXCR4-expressing tumor xenograft by imaging,Jurkat xenografts,failed to visualize CXCR4-expressing tumors
same,logD,[3],0.29 ± 0.1
same,fraction unbound at 60 min,[4],0.63
same,metabolic stability in plasma (in words),"[5]; human, plasma",high metabolic stability in plasma up to 4 h
"CN1C(=O)[C@@H](Cc2ccc(O)c(I)c2)NC(=O)CNC(=O)[C@H](Cc2ccc3ccccc3c2)NC(=O)[C@H](CCCN=C(N)N)NC(=O)[C@H]1CCCNC(=O)c1ccc(CNC(=O)CN2CCN(CC(=O)O)CCN(CC(=O)O)CCN(CC(=O)O)CC2)cc1.[177Lu] [^177Lu-Pentixather, cyclo(3-iodo-D-Tyr^1-D-[NMe]Orn^2(AMBS-(^177Lu-DOTA)-Arg^3-Nal^4-Gly^5)] (cyclo([2Nal]G[dTyr(3-I)][dNMeOrn]([4Amb-DOTA])R))",plasma protein binding (PPB),[7],97%
LVRYTKKVPQVSTPTL [EPI-X4],half-life in human plasma,[1],17 min
